± gives the uncertainty stated by the source.

This series can be described thus: protein stability index of a GFP-peptide fusion (yeast GPS) (PSI 1-4); higher = more stable; sorted into four equal gates, so the index is relative within each strain. The procedure, abridged: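 The protein stability index of a peptide was calculated by multiplying its read frequency in each gate by that gate's number and adding the products. The peptides were tiled 17-residue stretches of yeast proteins, fused downstream of GFP on a Cherry-expressing plasmid and carried in yeast as a pooled library. Mid-log cultures in leucine-free medium were sorted into four equal gates by GFP/Cherry ratio, and each gate's plasmids were PCR-amplified and Illumina-sequenced.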

Regarding VEKRIGKIVSQRGKWNL [RGR1], the protein stability index (doa10∆) was 2.88 ± 0.065, the protein stability index (pdr5∆) is 2.96 ± 0.049, the protein stability index (san1∆) turned out to be 3.16 ± 0.06 and the protein stability index (ubr1∆) was determined as 2.71 ± 0.036.

As for QQQQQQNNSTGSSSIIY [SSN2], the protein stability index turned out to be 2.65 ± 0.07 (doa10∆), 2.99 ± 0.062 (pdr5∆), 2.69 ± 0.091 (san1∆) and 2.79 ± 0.065 (ubr1∆).

As to AGTQSSKFSKQQAKGAF [RPL24A], the protein stability index by setting is: (doa10∆) 3.2 ± 0.063; (pdr5∆) 3.27 ± 0.062; (san1∆) 3.27 ± 0.035; (ubr1∆) 3.17 ± 0.049.

Consider YSTCPSETDLNDIPLGS [SRB8], for which the protein stability index was 2.52 ± 0.13 (doa10∆), 2.72 ± 0.18 (pdr5∆), 2.36 ± 0.14 (san1∆) and 2.47 ± 0.078 (ubr1∆).

On to SSAHLIRINDEPILGQI [YML103C/NUP188], for which the protein stability index by setting is: (doa10∆) 2.59 ± 0.084; (pdr5∆) 2.9 ± 0.077; (san1∆) 2 ± 0.14; (ubr1∆) 2.45 ± 0.069.

For IYRVRVRRGNRKRPVPK [RPL15A], the protein stability index was found to be 2.86 ± 0.2 (pdr5∆) and 3.2 ± 0.14 (ubr1∆).

Turning to DLEEAYATQVKTDNTVD [RPT3], the protein stability index is, setting by setting: (doa10∆) 2.19 ± 0.18; (pdr5∆) 2.58 ± 0.091; (san1∆) 2.47 ± 0.14; (ubr1∆) 2.79 ± 0.1.

Take SMRVKPSASLKLHHDLK [YMR129W/POM152]: the protein stability index runs as follows: (doa10∆) 3.14 ± 0.079; (pdr5∆) 2.98 ± 0.064; (san1∆) 2.95 ± 0.062; (ubr1∆) 3.1 ± 0.048.

As for QIAFDLVSSASQQLLEI [RPN2], the protein stability index worked out at 2.22 ± 0.068 (doa10∆), 2.17 ± 0.063 (pdr5∆), 1.66 ± 0.11 (san1∆) and 1.69 ± 0.072 (ubr1∆).

For RNQEKKMEKKKSSSLSL [SNM1], the protein stability index reads like this: (doa10∆) 3.53 ± 0.22; (pdr5∆) 3.5 ± 0.16; (san1∆) 2.68 ± 0.22; (ubr1∆) 2.98 ± 0.1.

Turning to ILSSLYLLSIWVKKFKW [CYT1], the protein stability index reads like this: (doa10∆) 2.22 ± 0.091; (pdr5∆) 1.5 ± 0.069; (san1∆) 1.77 ± 0.089; (ubr1∆) 1.3 ± 0.055.

On to QEASQVTFIFGELKRGN [MED11], for which the protein stability index reads like this: (doa10∆) 2.07 ± 0.062; (pdr5∆) 2.75 ± 0.052; (san1∆) 2.75 ± 0.066; (ubr1∆) 2.6 ± 0.043.

Sequence DFPELKPYKQVKQIAPA [FAS2] yielded a protein stability index (doa10∆) of 2.29 ± 0.066, a protein stability index (pdr5∆) of 2.46 ± 0.069, a protein stability index (san1∆) of 2.58 ± 0.07 and a protein stability index (ubr1∆) of 2.66 ± 0.057.

The sequence ADKPFTRLTAYQELAYR [YML031W/NDC1] came in with a protein stability index (doa10∆) of 2.52 ± 0.12, a protein stability index (pdr5∆) of 3.17 ± 0.11, a protein stability index (san1∆) of 3.06 ± 0.18 and a protein stability index (ubr1∆) of 3 ± 0.098.

Consider IIELPNEKFEIELLSLD [SRB4], for which the protein stability index by setting is: (doa10∆) 2.68 ± 0.056; (pdr5∆) 2.99 ± 0.066; (san1∆) 2.84 ± 0.052; (ubr1∆) 2.68 ± 0.048.

VEYLDVNEENDSYIALY [RET1]: the protein stability index runs as follows: (doa10∆) 2.97 ± 0.14; (pdr5∆) 3.08 ± 0.19; (san1∆) 3.2 ± 0.08; (ubr1∆) 3.2 ± 0.12.

As to HELITNIGETAGVVQDI [RPB9], the protein stability index came out at 2.82 ± 0.066 (doa10∆), 2.79 ± 0.054 (pdr5∆), 3.27 ± 0.07 (san1∆) and 3.22 ± 0.057 (ubr1∆).

Turning to SGTSVFEVEMILMQQQM [SRP54], the protein stability index was 3.3 ± 0.084 (doa10∆), 3.23 ± 0.071 (pdr5∆), 3.18 ± 0.07 (san1∆) and 3.22 ± 0.098 (ubr1∆).

For FDNVASVFMPLIFIACN [ECM29], the protein stability index runs as follows: (doa10∆) 2.9 ± 0.048; (pdr5∆) 2.72 ± 0.038; (san1∆) 2.57 ± 0.045; (ubr1∆) 2.71 ± 0.032.

With CGGINDSIPYPQIVKLF [ECM29], the protein stability index (doa10∆) was determined as 1.56 ± 0.07, the protein stability index (pdr5∆) amounted to 1.31 ± 0.06, the protein stability index (san1∆) was 1.96 ± 0.086 and the protein stability index (ubr1∆) turned out to be 1.71 ± 0.049.

On to LKLCVQELEKRMPMDFK [PRE1], for which the protein stability index by setting is: (doa10∆) 3.15 ± 0.19; (pdr5∆) 3.34 ± 0.099; (san1∆) 3.18 ± 0.054; (ubr1∆) 3.37 ± 0.085.

Turning to WCQEAFPSSETTSLNPI [BRR2], the protein stability index was 3.23 ± 0.11 (doa10∆), 3.33 ± 0.097 (pdr5∆), 3.48 ± 0.11 (san1∆) and 3.23 ± 0.17 (ubr1∆).

Consider FSLLVKAEIPPEYAKVG [SIN4], for which the protein stability index (doa10∆) was found to be 2.54 ± 0.063, the protein stability index (pdr5∆) was 2.45 ± 0.045, the protein stability index (san1∆) was found to be 2.52 ± 0.057 and the protein stability index (ubr1∆) stood at 2.72 ± 0.036.

As for STELNNKQYELFMKSLI [SWI1], the protein stability index reads like this: (doa10∆) 3.03 ± 0.075; (pdr5∆) 2.94 ± 0.058; (san1∆) 3.16 ± 0.039; (ubr1∆) 2.74 ± 0.048.

Turning to GRRKTWKRQNTLSLWRY [RPL15A], the protein stability index is, setting by setting: (doa10∆) 3.21 ± 0.1; (pdr5∆) 3.11 ± 0.11; (san1∆) 2.57 ± 0.085; (ubr1∆) 3.37 ± 0.057.

Values taken from the supplement of paper PMC9732359.
